Assay results from patent US20170362330A1 (University of California, published 2017).
Changes are numbered by the printed parent chain.

B1: 3G7RY (aka 3G8) (antibody, V domains shown)
VH: EVQLVESGGGLVQPGGSLRLSCAASGFTFSDYYMSWIRQAPGKGLEWVSYISSSGSTIYYADSVKGRFTISRDNSKNTLYLQMNSLRAEDTAVYYCARDYGRIAAAGRRYWGQGTLVTVSS
VL: QSALTQPPSASATPGQRVTISCSGRTSNIGSNHVYWYQQLPGTAPKLLIYRNNQRPSGVPDRFSGSKSGTSASLAISGLRSEDEADYYCATWDDSLSGEVFGGGTKLTVL
notes: Human scFv from phage/yeast display, converted into full human IgG1; elsewhere 3G8 is 3G7RY
B2: 3G7HY (antibody, V domains shown)
VH: B1 VH with R109H
VL: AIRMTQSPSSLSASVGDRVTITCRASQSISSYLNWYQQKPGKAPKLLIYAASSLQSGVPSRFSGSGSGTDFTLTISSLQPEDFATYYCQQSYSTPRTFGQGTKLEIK
notes: Human scFv from phage/yeast display, converted into full human IgG1
B3: YS1 (antibody, V domains shown)
VH: B1 VH with R109H
VL: SSELTQDPAVSVALGQTVRITCQGDTLSTYYANWYQQKPGQAPVLVIYGKNNRPSGIPDRFSGSSSGNTASLTITGAQAEDEADYYCHSRDISGNYLFASGTKLTVL
notes: as for B2
B4: 3G7NY (antibody, V domains shown)
VH: B1 VH with R109N
VL: DIVMTQSPLSLPVTPGEPASISCRSSQSLLHSNGYDYLDWYLQKPGQSPQLLIYLGSNRASGVPDRFSGSGSGTDFTLKISRVETEDVGIYYCMQGLQTPSFGQGTKLEIK
notes: as for B2
B5: YS6 (antibody, V domains shown)
VH: B1 VH with E1Q, V5Q, L11V, Q13R, R109H
VL: SSELTQDPAVSVALGQTVRITCQGDSLRSYYASWYQQKPGQAPVLVIYGKNNRPSGIPDRFSGSSSGNTASLTITGAQAEDEADYYCNSRDSSGTHLEVFGGGTKVTVL
notes: as for B2
B6: 3G7 (antibody, V domains shown)
VH: B1 VH with E1Q, V5Q, L11V, Q13R, R109H
VL: B5 VL with L45P, G94S, L97R, E98G, V106L
notes: as for B2
B7: YS9 (antibody, V domains shown)
VH: QVQLVESGGGLIQPGGSLRLSCAASGFTVSSNYMSWVRQAPGKGLEWVSVIYTDGSTYYADSVKGRFTISRDNSKNTLYLQMNSLRAEDTAIYYCARDRGTSGYDWAWFDLWGQGTLVTVSS
VL: SSELTQDPAVSVALGQTVRITCQGDSLRTYYASWYQQRPGQAPILVLYGKNNRPSGIPDRFSGSSSGNTASLTITGAQAEDEADYYCNSRDSSGNHVVFGGGTKLTVL
notes: as for B2
B8: YS8 (antibody, V domains shown)
VH: QVQLQESGGGVVQPGRSLRLSCAASGFTFSSYGMHWVRQAPGKGLEWVAVISYDGSNKYYADSVKGRFTISRDNSKNTLYLQMNSLRAEDTAVYYCAKVMGLAAAGLDAFDIWGQGTTVTVSS
VL: NFMLTQPASLSGSPGQSITISCTGTSSDVGGYNYVSWYQQHPGYAPKLMIYDVSNRPSGVSNRFSGSKSGNTASLTISGLQAEDEADYYCSSYTSSSTPWVFGGGTKLTVL
notes: as for B2
B9: 2C8 (antibody, V domains shown)
VH: B8 VH with Q1E, Q5V, V93E, T118L
VL: B8 VL with N1Q, F2S, M3A, L10V, Y44K, D87Y, T98D, K107Q
notes: as for B2
B10: YS3 (antibody, V domains shown)
VH: QVQLQESGGGLVQPGGSLRLSCAASGFTFSSYWMSWVRQAPGKGLEWVADIKQDGSEKYYVDSVKGRFTISGDNAKNSLYLQMNSLRAEDTAVYYCAKDVGSTAINYVRAYTWFDPWGQGTLVTVSS
VL: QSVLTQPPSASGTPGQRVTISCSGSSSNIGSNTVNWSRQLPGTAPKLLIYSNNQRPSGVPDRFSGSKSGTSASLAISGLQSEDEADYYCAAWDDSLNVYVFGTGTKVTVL
notes: as for B2
B11: YS4 (antibody, V domains shown)
VH: QVQLQESGGGLVQPGGSLRLSCAASGFTFSNYAMSWVRQAPGKGLEWVSTISGSGSSTFYVDSVKGRFTISRDNSKNTLYLQMNSLRAEDTAVYYCAQGLYSSGWANWFDPRGQGTLVTVSS
VL: KIVLTQSPSSLSASVGDTVTIACRASRDIRNDLAWYQQKPGKAPKLLIYGASSLQSGVPSRFSGSGSGTEFILTISSLQPEDFATYYCHRLNSYPLTFGGGTKVDIK
notes: as for B2
B12: SB1HGNY (antibody, V domains shown)
VH: QVQLQQSGGGVVQPGRSLRLSCAASGFTFSSYAMHWVRQAPGKGLEWVAFIRSDGSKKYYADSVKGRFTISRDNSKNTLYLQMNSLRAEDTAVYYCARHGNYFDSWGQGTLVTVSS
VL: DIQMTQSPSFLSASVGDRVTITCRASQGISSYLAWYQQKPGKAPKLLIYAASTLQSGVPSSFSGSGSGTEFTLTISSLQPEDFATYYCQQLASYPLTFGGGTKVDIK
notes: as for B2
B13: YS10 (antibody, V domains shown)
VH: QVQLQESGGGLVQPGGSLRLSCAASGFTFSSYAMSWVRQAPGKGLEWVSAISGSGGSTYYADSVKGRFTISRDNSKNTLYMQMNSLRAEDTAVYYCAKDRYYYGSGKDAFDIWGRGTMVTVSS
VL: QSVLTQPASVSGSPGQSITISCTGTGSDVGSYNYVSWYQQNPGKAPKLMIYEVSNRPSGVSNRFSGSKSGNTASLTISGLQAEDEADYYCSSYTTSSTLVFGGGTKVTVL
notes: as for B2
B14: UA8kappa (antibody, V domains shown)
VH: EVQLVESGGGVVQPGRSLRLSCAASGFTFSSFGMHWVRRAPGKGLEWVAVISYDGSNQYYADSVKGRFTISRDNSKNTLYLQMNSLRAEDTAVYYCGSRPGGGYASGSTVAYWGQGTLVTVSS
VL: NIQMTQSPSSLSASVGDRVTITCRAGQPISTYVNWYQHKPGKAPKLLIYGASNLQSGVPSRFSGGGSATDFTLTISSLQPEDFATYYCQQSYSSLLTFGDGTKVEIK
notes: Human scFv from phage/yeast display, converted into full human IgG1; also called UASkappa
B15: SB2 (antibody, V domains shown)
VH: EVQLVESGGGLVKPGGSLRLSCAASGFTFSDYYMSWIRQAPGKGLEWVSYISSSGSSIYYADSVKGRFTISRDNAKNSLYLQMNSLKAEDTAVYYCARDITDVVGVSFDYWGQGTLVTVSS
VL: DIQLTQSPSSLSASVGDRVTITCRASRSISTYLSWYQQKPGKAPKLLIYDASRLQNGVPSRFSGSGSDTDFTLTISSLQPEDFATYFCQQSYNPPWTFGQGTKLEIK
notes: as for B2
B16: YS7 (antibody, V domains shown)
VH: QVQLVQSGGGVVQPGRSLRLSCAASGFTFSSYAMHWVRQAPGKGLEWVAVISYDGSNKYYADSVKGRFTISRDTSTNTLYLQMNSLRADDTAVYYCGRESSGSPGVWGQGTTVTVSS
VL: SYVLTQDPAVSVALGQTVRITCQGDSLRSYYASWYQQKPGQAPVLVIYGKNNRPSGIPDRFSGSSSGNTASLTITGAQAEDEADYYCNSRDSSGNQFGGGTKLTVL
notes: as for B2
B17: YS12 (antibody, V domains shown)
VH: QVQLVESGGGVVQPGRSLRLSCAASGFTFSTYGMHWVRQAPGKGLEWLSFISYDGDEKYYADSVKGRFTISRDNSKNTLYLQMNSLRAEDTAVYWCAKASGYGMGILDYWGQGTLVTVSS
VL: SSELTQDPAVSVALGQTVRITCQGDSLRSYYVSWFQQKPGQAPVFVMYGQNNRPSGISERFSGSSSGNTASLIITGAQAEDEADYYCHSRDSSGTHLRVFGGGTKLTVL
notes: Human scFv from phage/yeast display, converted into full human IgG1; also called YS12 IgG1
B18: YS11 (antibody, V domains shown)
VH: QVQLVESGGGLVQPGGSLGLSCAASGFTFSNYWMSWVRQAPGKGLEWVANVRQDGGQKYYVDSVKGRFTISRDNAKNSLYLQMNSLRTEDTAVYFCVSQRNSGEHDYWGQGTLVTVSS
VL: SELTQDPAVSVALGQTVRITCQGDSLRSYYASWYQQKPGQAPVLVIYGENSRPSGIPDRFSGSSSGNTASLTITGAQAEDEADYYCNSWDSSGNHVVFGGGTKLTVL
notes: as for B2
B19: YS5F (antibody, V domains shown)
VH: QVQLVQSGGGVVQPGRSLRLACAASGFTVNNYAMHWVRQAPGKGLEWVAVISYDGNNKYYADSVKGRFTISRDNSKNTLYLQMNSLRAEDTAVYYCAKGGGYFDLWGRGTLVTVSS
VL: QSVLTQPPSVSGAPGQRVTISCTGSSSNIGAGYDVHWYQQLPGTAPKLLIYGNNNRPSGVPDRFSGSKSGTSASLAITGLQAEDEADYYCSSYTSGTWLFGGGTKLTVL
notes: as for B2
B20: YS5 (antibody, V domains shown)
VH: B19 VH with F27L
VL: B19 VL
notes: Human scFv from phage/yeast display, converted into full human IgG1; also called YS5 IgG1; anti-CD46 antibody (YS5)

Columns and labels:
[1] = biological target: T1, recombinant Fc fusion protein composed of the Sushi domain 1 and 2 of human CD46 (human, UniProt P15529 35-159); experiment: phage and yeast display selection and FACS screening with recombinant CD46-Fc fusion
T1 construct: domain: Sushi domain 1 and 2; Produced in HEK293 cells, purified by protein A; also called CD46-Fc fusion; recombinant CD46-Fc fusion protein; not shown: Fc part
T1 sequence (looked up): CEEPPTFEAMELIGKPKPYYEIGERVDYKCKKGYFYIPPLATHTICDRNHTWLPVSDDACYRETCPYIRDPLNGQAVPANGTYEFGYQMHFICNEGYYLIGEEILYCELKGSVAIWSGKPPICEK
Excerpt: To identify novel anti-human CD46 antibodies, a recombinant Fc fusion protein composed of the Sushi domain 1 and 2 of human CD46 was created. As complement elements bind predominantly to domain 3 and 4, the choice of domain 1 and 2 minimize selection of antibodies that could potently interfere with normal complement function. This CD46-Fc fusion was produced and purified from transfected HEK293 cells by protein A affinity chromatography. For human antibody selection, a 5×10⁹ member phagemid display library was created using cDNAs pooled from peripheral blood mononuclear cells of 426 healthy human donors, and the library was selected the recombinant CD46-Fc fusion protein. Following three rounds of selection, binding phagemid were screened by FACS and sequenced. In parallel, an alternatively strategy was employed that involve first selecting the library on live tumor cells followed by transferring the output from round 1 phagemid selection into a yeast surface display vector, and then FACS-based selection using low concentration ligands to enrich high affinity binders to the recombinant CD46-Fc fusion protein. The resulting antibodies bind with high affinity to both live tumor cells and the recombinant human CD46 protein.

cynomolgus monkey CD46 [2] = biological target: T2, cynomolgus monkey CD46 (cynomolgus monkey, UniProt A0A2K5WCL8 35-377); experiment: FACS on CHO-cynoCD46 cells, 4 C overnight, MFI against antibody concentration
T2 construct: whole, on cells; also called cyno monkey CD46; CHO-cynoCD46
T2 sequence: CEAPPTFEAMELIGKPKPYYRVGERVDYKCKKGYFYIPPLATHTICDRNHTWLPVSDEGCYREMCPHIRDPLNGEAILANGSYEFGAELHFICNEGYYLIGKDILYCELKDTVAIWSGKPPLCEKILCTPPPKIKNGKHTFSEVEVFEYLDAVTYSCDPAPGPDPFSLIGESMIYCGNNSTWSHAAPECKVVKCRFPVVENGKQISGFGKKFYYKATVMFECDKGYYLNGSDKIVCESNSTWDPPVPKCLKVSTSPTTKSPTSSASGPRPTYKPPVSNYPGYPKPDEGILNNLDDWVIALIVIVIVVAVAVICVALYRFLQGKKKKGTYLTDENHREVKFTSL
Protocol: (§1) FIGS. 6. YS5 KD measurement on CHO cells transfected with cynomolgus monkey CD46. YS5 was incubated with CHO-cynoCD46 cells at 4° C. overnight and binding analyzed by FACS.

cynomolgus monkey CD46 [3] = biological target: T2, cynomolgus monkey CD46; experiment: FACS on CHO cells transfected with cynomolgus monkey CD46, 4 °C overnight, MFI curve fit
Protocol: as §1

Row | Binder | binding result [1] | EC50 (read off the curve) (cynomolgus monkey CD46 [2]) [nM] | Kd (cynomolgus monkey CD46 [3]) [nM]
1 | B1 | binds | – | –
2 | B2 | binds | – | –
3 | B3 | binds | – | –
4 | B4 | binds | – | –
5 | B5 | binds | – | –
6 | B6 | binds | – | –
7 | B7 | binds | – | –
8 | B8 | binds | – | –
9 | B9 | binds | – | –
10 | B10 | binds | – | –
11 | B11 | binds | – | –
12 | B12 | binds | – | –
13 | B13 | binds | – | –
14 | B14 | binds | – | –
15 | B15 | binds | – | –
16 | B16 | binds | – | –
17 | B17 | binds | – | –
18 | B18 | binds | – | –
19 | B19 | binds | – | –
20 | B20 | binds | ~2 | 1.95
